US20160237419

Tests used:
[1] = molecular target: human wild type trypsinogen-1 (PRSS1 wt)
[2] = molecular target: T1, supercharged variant of human trypsinogen-1 (PRSS1 sc)
T1 chain: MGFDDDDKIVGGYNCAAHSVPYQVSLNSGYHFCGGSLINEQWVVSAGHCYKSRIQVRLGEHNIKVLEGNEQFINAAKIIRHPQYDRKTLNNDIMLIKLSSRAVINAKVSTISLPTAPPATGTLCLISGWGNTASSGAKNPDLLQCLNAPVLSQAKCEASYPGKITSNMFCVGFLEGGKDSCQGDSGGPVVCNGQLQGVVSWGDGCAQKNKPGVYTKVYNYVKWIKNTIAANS

B1: human enteropeptidase light chain sc C112S (hEPI-sc-C112S) (protein)
chain: IVGGSDAKEGAWPWVVGLYYDDRLLCGASLVSSDWLVSAAHCVYGRNLEPSKWTAILGLHMKSNLTSPQTVPRLIDEIVINPHYNRRRKDNDIAMMHLEFKVNYTDYIQPISLPEENQVFPPGRNCSIAGWGTVVYQGTTADILQEADVPLLSNERCQQQMPEYNITENMICAGYEEGGIDSCQGDSGGPLMCQENNRWFLAGVTSFGYECALPNRPGVYARVSRFTEWIQSFLH
With B1 the “activation of trypsinogen by enteropeptidase (trypsin activity on CBZ-GPR-pNA; fluorescence of FRET peptide 7)” value [1] was “Both PRSS1 versions can be activated to similar levels” and the “activation of trypsinogen by enteropeptidase (trypsin activity on CBZ-GPR-pNA; fluorescence of FRET peptide 7)” value [2] was “Both PRSS1 versions can be activated to similar levels, although PRSS1 sc shows a slightly slower activation profile”.
